Substitutions are numbered along the chain they refer to. Numbers in names are those of the source. Each block holds one binder with its values, some of them ahead of it.
How the values were obtained:
[1] = biological target: T1, LexA fused wild-type UVR8 (UV … LOCUS 8) (Arabidopsis thaliana), Q9FN03; test: SDS-PAGE of unboiled extracts with immunoblot; total protein extracts of yeast EGY48 expressing LexA-UVR8, kept on ice under −UV-B or +UV-B for 20 min, loaded without boiling, anti-LexA immunoblot; details: remark: other sources report otherwise
T1 chain: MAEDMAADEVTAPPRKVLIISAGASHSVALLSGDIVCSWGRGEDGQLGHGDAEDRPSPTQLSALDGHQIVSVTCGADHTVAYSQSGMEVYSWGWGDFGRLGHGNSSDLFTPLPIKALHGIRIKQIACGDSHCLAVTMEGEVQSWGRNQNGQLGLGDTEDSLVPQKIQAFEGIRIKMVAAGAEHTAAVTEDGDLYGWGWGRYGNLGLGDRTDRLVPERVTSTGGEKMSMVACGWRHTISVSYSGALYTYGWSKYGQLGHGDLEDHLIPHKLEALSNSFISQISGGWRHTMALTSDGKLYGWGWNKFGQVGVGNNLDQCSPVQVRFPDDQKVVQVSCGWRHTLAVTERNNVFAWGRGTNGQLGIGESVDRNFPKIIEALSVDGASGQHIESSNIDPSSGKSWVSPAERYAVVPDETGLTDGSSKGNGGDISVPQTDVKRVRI

[2] = biological target: T2, YFP-UVR8^WT (proUVR8-YFP-UVR8/uvr8-6) (Arabidopsis thaliana), Q9FN03; test: SDS-PAGE of unboiled extracts with immunoblot; total protein extracts of 4-day-old transgenic seedlings grown under −UV-B or +UV-B, extracts kept on ice under the same condition for 30 min, loaded without boiling, anti-GFP immunoblot; details: remark: other sources report otherwise
T2 chain: T1 chain

[3] = biological target: the molecule itself; test: as above
[4] = biological target: the molecule itself; test: SDS-PAGE of unboiled extracts with immunoblot; total protein extracts of yeast EGY48 expressing LexA-UVR8, kept on ice under −UV-B or +UV-B for 20 min, loaded without boiling, anti-LexA immunoblot

stoichiometry N [1]: 2
B1: LexA fused wild-type UVR8 (UV … LOCUS 8), Q9FN03 1-440 (natural protein)
chain: T1 chain

stoichiometry N [2]: 2
B2: YFP-UVR8^WT (proUVR8-YFP-UVR8/uvr8-6), Q9FN03 1-440 (natural protein)
chain: T1 chain

B3: YFP-UVR8^W285F (proUVR8-YFP-UVR8^W285F/uvr8-6) (natural protein, Arabidopsis thaliana, UniProt Q9FN03 1-440, looked up)
chain: T1 chain with W285F
notes: UV … LOCUS 8 (UVR8), Arabidopsis thaliana; The N-terminal place of YFP is read from the construct's name; source: transgenic Arabidopsis (native UVR8 promoter, uvr8-6 background), 4-day-old seedlings, in total protein extract; not shown: YFP, N-terminal, kept
stoichiometry N [3]: 2

B4: LexA fused UVR8^W285F (natural protein, Arabidopsis thaliana, UniProt Q9FN03 1-440, looked up)
chain: T1 chain with W285F
notes: UV … LOCUS 8 (UVR8), Arabidopsis thaliana; also called mUVR8; source: yeast strain EGY48, LexA fusion; in total protein extract (dimer/monomer assay) and yeast two-hybrid fusion
stoichiometry N [4]: 2

Reference: PMC3961177, “Photoactivated UVR8-COP1 Module Determines Photomorphogenic UV-B Signaling Output in Arabidopsis” (PLoS Genetics, 2014)
